The source of these data is PMC12232145 (BMC Microbiology, 2025).

The test deals with human plasminogen (human, UniProt P00747 20-810). As to the kind of experiment: SPR.
Chain of human plasminogen (P00747 20-810): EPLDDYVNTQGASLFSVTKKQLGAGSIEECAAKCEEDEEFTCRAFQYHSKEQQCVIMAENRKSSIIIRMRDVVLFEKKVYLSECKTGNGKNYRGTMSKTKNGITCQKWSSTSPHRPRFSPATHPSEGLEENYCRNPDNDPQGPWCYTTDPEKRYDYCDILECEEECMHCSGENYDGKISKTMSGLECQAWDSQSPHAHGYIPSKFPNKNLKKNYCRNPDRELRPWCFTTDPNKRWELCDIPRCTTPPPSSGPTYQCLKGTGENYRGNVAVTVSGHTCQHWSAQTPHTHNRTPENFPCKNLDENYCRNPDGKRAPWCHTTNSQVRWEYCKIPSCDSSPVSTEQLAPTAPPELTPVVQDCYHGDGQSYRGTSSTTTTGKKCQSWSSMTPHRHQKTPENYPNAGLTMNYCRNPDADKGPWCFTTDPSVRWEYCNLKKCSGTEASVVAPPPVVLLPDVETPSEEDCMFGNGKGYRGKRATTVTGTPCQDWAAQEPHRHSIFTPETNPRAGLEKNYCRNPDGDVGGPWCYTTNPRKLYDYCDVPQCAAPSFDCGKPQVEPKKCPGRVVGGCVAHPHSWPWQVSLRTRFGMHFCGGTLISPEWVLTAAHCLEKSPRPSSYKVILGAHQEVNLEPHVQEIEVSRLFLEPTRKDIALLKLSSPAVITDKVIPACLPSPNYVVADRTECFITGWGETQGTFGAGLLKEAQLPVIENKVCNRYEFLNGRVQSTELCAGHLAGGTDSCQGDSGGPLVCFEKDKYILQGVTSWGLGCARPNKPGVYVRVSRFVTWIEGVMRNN

B1: recombinant FabG (3-ketoacyl-ACP reductase) of Streptococcus suis serotype 2 strain ZY05719 (natural protein, UniProt A0A0H3MXL9 1-244, looked up)
chain: MELTNKNVFVTGSSRGIGLAIAHKFASLGANVVLNGRGQLGQDLLDSFADYGVKVLAISGDISSAQDAKRMVAEAIETLGSVDILVNNAGITKDGMALRMTEEDFDTVLKVNLTGTFNMTQAVLKPMTKAREGAIINLSSVSGLIGNAGQANYSASKAGVIGFTKAIAREVAGRNVRVNAIAPGFIQSDMTDVLSDKIKEAMTAQIPMKRFGATEEVADVAVFLAKQEYLTGQVIAVDGGLTMQ
As for B1, the dissociation constant Kd amounted to 1.72 nM.
